Our source for the stoichiometry N values is article doi:10.1101/068965.

The target of the test is EGFP-LOV2-OPTN_((412-520)) (Avena sativa | not stated) (UniProt Q96CV9). Description: SEC.

For “EGFP-LOV2-OPTN_((412-520)) (from UniProt Q96CV9 412-520) (designed binder)”, the stoichiometry N amounted to 2.
